Source: patent US20250332254A1, “METHODS FOR TREATING PATIENTS WITH FAMILIAL HYPERCHOLESTEROLEMIA” (REGENERON PHARMACEUTICALS, INC., priority 2016, published 2025)

Assays:
ANGPTL3 [1] = biological target: T1, ANGPTL3 (Homo sapiens, UniProt Q9Y5C1); experiment: Phase 1 first-in-human ascending single-dose placebo-controlled study of evinacumab SC or IV in subjects with elevated TGs and/or LDL-C; assay type: in vivo
T1 construct: Angiopoietin-like protein 3 (ANGPTL3) is a secreted protein expressed in the liver; from tissue; host or cells: in vivo, human subjects; circulating protein secreted by the liver
T1 sequence (Q9Y5C1 17-460): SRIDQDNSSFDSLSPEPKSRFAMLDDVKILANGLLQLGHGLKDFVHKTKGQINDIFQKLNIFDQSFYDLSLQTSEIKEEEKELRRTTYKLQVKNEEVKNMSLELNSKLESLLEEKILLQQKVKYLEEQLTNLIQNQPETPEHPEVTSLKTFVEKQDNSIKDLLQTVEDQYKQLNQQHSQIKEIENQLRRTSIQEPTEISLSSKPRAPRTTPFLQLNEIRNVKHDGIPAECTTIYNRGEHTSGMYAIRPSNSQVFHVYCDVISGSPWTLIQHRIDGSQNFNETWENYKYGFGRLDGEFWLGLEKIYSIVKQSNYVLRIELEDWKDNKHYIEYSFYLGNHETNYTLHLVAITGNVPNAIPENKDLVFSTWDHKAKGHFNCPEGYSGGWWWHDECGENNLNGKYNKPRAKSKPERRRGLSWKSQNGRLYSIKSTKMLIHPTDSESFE
Procedure: Methods: The instant study constituted a phase 1, first-in-human, ascending single-dose, placebo (PBO)-controlled, double-blind study of evinacumab administered subcutaneously (SC) or intravenously (IV) in subjects with elevations of TGs (150≤TG≤450 mg/dL) and/or LDL C (≥100 mg/dL). Eighty-three subjects were randomized into the study (9 in PBO SC; 12 in PBO IV; 11 in 75 mg SC: 12 in 150 mg SC, 9 in 250 mg SC, 10 in 5 mg/kg IV, 9 in 10 mg/kg IV, and 11 in 20 mg/kg IV).

ANGPTL3 [2] = biological target: T2, ANGPTL3 (Mus musculus, UniProt Q9R182); settings: mouse model; Wang, et al. 2015; cited from earlier work
T2 construct: host or cells: mouse, in vivo
T2 sequence (Q9R182 17-455): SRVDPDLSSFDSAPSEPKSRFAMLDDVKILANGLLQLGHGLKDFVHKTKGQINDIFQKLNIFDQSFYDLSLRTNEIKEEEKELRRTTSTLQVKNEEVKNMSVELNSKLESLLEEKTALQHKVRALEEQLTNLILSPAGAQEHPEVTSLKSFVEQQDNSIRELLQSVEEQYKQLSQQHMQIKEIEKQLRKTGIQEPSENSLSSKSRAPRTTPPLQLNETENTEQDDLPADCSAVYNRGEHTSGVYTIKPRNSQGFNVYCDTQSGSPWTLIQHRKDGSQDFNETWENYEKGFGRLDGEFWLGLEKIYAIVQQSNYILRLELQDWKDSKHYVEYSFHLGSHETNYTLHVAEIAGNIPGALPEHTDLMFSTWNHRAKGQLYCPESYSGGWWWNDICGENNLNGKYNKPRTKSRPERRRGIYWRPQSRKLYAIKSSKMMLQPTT

ANGPTL3 [3] = biological target: T1, ANGPTL3; settings: Dewey, et al. 2017; cited from earlier work
ANGPTL3 [4] = biological target: T1, ANGPTL3; experiment: Phase 2 open-label study of evinacumab in patients with homozygous familial hypercholesterolemia on concomitant lipid-lowering therapies; assay type: in vivo; settings: for LDL-C, Mean of Percent Change from Baseline ± SE (%) / Non-HDL-C, Mean of Percent Change from Baseline ± SE (%) / Apolipoprotein B, Mean of Percent Change from Baseline ± SE (%): 250 mg SC wk 0 + 15 mg/kg IV wk 2
Procedure: Patients: The nine patients (5 men, 4 women) were selected based on their genotypes and phenotypes. All presented a history of LDL-C >500 mg per deciliter or >400 mg per deciliter after portacaval shunt, premature atherosclerosis (8 of 9 with prior history of cardiovascular events) and severe xanthomatosis, and were homozygotes or compound heterozygotes for known FH-causing LDLR mutations (Hobbs, et al. 1992 Hum Mutat 1:445-66). Three patients were null homozygotes. All patients were on maximally tolerated lipid-lowering therapy.
Study Treatment: The patients were required to maintain their usual background lipid-lowering therapy and diet and exercise regimens throughout the study. All patients received a single open-label dose of evinacumab 250 mg subcutaneously in the abdominal area during the baseline visit and a single 15 mg per kilogram intravenous dose of evinacumab 2 weeks later. The sterile, lyophilized evinacumab drug product was supplied in a 5-ml single-use glass vial for reconstitution to a concentration of 100 mg per milliliter for subcutaneous doses and 50 mg per milliliter for intravenous doses. Patients were followed for a period of up to 24 weeks after the intravenous dose to allow for washout of evinacumab, and were offered enrollment in an extension study.
Pharmacodynamic Assessment: Fasting blood samples were collected before administration of study drug, at baseline and at regular intervals during the open-label treatment period and safety follow-up period, for measurement of LDL-C, non-HDL-C, total cholesterol, HDL-C, apolipoprotein B, lipoprotein (a), triglycerides, apolipoprotein A-1, and other parameters. The primary endpoint was the mean ±standard deviation (SD) percent change in LDL-C from baseline to week 4.

[5] = 3 homozygous null patients, through week 12

For “evinacumab: human anti-ANGPTL3 monoclonal antibody; HCVR SEQ ID NO:1, LCVR SEQ ID NO:5”, the “TG, median % change from baseline (maximum TG reductions)” value (ANGPTL3 [1]; Day 4, across the evinacumab doses (75-250 mg SC, 5-20 mg/kg IV)) was −1.0% to −75.0%, the “LDL-C, mean % changes from baseline” value (ANGPTL3 [1]; Day 11, across the evinacumab doses (75-250 mg SC, 5-20 mg/kg IV)) was −3.4% to −25.5% and the “duration of LDL reduction” value (ANGPTL3 [1]; after 20 mg/kg IV) was 43 days. For the same substance, the “duration of TG reduction” value (ANGPTL3 [1]; after 20 mg/kg IV) was 64 days, the “headache (TEAE), number of subjects” value (ANGPTL3 [1]; evinacumab group) was 7 and the “headache (TEAE), percent of subjects” value (ANGPTL3 [1]; evinacumab group) was 11.3%. The “subjects reporting at least one treatment emergent adverse event (TEAE), number” value (ANGPTL3 [1]; evinacumab group) was 32 subjects, the “subjects reporting at least one treatment emergent adverse event (TEAE), percent” value (ANGPTL3 [1]; evinacumab group) was 51.6% and the “increases in ALT/AST [>2X ULN], number of subjects” value (ANGPTL3 [1]; evinacumab-treated) was 5 treated subjects. The “effect on TGs, LDL-C and HDL-C” value (ANGPTL3 [1]; healthy subjects with moderately elevated TGs and/or LDL-C) was “rapid and substantial reductions in TGs, as well as reductions in LDL-C and HDL-C”, the “discontinuation due to a TEAE” value (ANGPTL3 [1]; human, in vivo) was “no subject discontinued due to a TEAE” and the dose-related safety trend (ANGPTL3 [1]; human, in vivo) was “no dose-related safety trend”. The “effect on HDL-C, VLDL-C, total cholesterol, non-HDL-C, ApoA1, and ApoB” value (ANGPTL3 [1]; human, in vivo) was “Dose-dependent reductions”, the “effect on Lp(a)” value (ANGPTL3 [1]; human, in vivo) was “no apparent effects” and the “serious TEAEs” value (ANGPTL3 [1]; human, in vivo) was “None were serious”. The “effect on major lipid fractions” value (ANGPTL3 [1]; normal healthy volunteers) was “reduced the three major lipid fractions”, the tolerability (ANGPTL3 [1]; single SC or IV dose, subjects with moderately elevated TGs and/or LDL-C) was “generally well-tolerated” and the “number of VLDLs secreted by the liver and character of VLDL particles” value (ANGPTL3 [2]) was “did not affect the number of VLDLs secreted by the liver, but qualitatively altered the VLDL particles that were made”. For the same substance, the “tolerability and LDL-C effect in first-in-human study of healthy human volunteers” value (ANGPTL3 [3]) was “shown to reduce LDL-C and was also well tolerated”, the “mean±SD peak reduction in LDL-C” value (ANGPTL3 [4]; [5]) was −48±13% and the “range of peak reduction in LDL-C” value (ANGPTL3 [4]; [5]) was −60% to −33%. For the same substance, the tolerability (ANGPTL3 [4]; 250-mg subcutaneous injection at baseline and 15 mg per kilogram intravenous infusion at week 2) was “well tolerated”, the “absolute reductions in LDL-C achieved” value (ANGPTL3 [4]; HoFH patients) was 150 to 200 mg/dL and the “LDL-C, Mean of Percent Change from Baseline ± SE (%)” value (ANGPTL3 [4]; HoFH patients, Day 4) was −12.8 ± 3.7%. For the same substance, the “Non-HDL-C, Mean of Percent Change from Baseline ± SE (%)” value (ANGPTL3 [4]; HoFH patients, Day 4) was −13.6 ± 3.6%, the “LDL-C, Mean of Percent Change from Baseline ± SE (%)” value (ANGPTL3 [4]; HoFH patients, Week 1) was −24 ± 7.0% and the “Non-HDL-C, Mean of Percent Change from Baseline ± SE (%)” value (ANGPTL3 [4]; HoFH patients, Week 1) was −24.1 ± 6.7%. For the same substance, the “Apolipoprotein B, Mean of Percent Change from Baseline ± SE (%)” value (ANGPTL3 [4]; HoFH patients, Week 2) was −24.2 ± 7%, the “LDL-C, Mean of Percent Change from Baseline ± SE (%)” value (ANGPTL3 [4]; HoFH patients, Week 2) was −30.2 ± 8.1% and the “Non-HDL-C, Mean of Percent Change from Baseline ± SE (%)” value (ANGPTL3 [4]; HoFH patients, Week 2) was −29.6 ± 7.8%. For the same substance, the “Apolipoprotein B, Mean of Percent Change from Baseline ± SE (%)” value (ANGPTL3 [4]; HoFH patients, Week 3) was −38.6 ± 7.3%, the “LDL-C, Mean of Percent Change from Baseline ± SE (%)” value (ANGPTL3 [4]; HoFH patients, Week 3) was −41.4 ± 8.3% and the “Non-HDL-C, Mean of Percent Change from Baseline ± SE (%)” value (ANGPTL3 [4]; HoFH patients, Week 3) was −41.6 ± 8%. The “Apolipoprotein B, Mean of Percent Change from Baseline ± SE (%)” value (ANGPTL3 [4]; HoFH patients, Week 4) was −45.9 ± 6.1%, the “LDL-C, Mean of Percent Change from Baseline ± SE (%)” value (ANGPTL3 [4]; HoFH patients, Week 4) was −49.2 ± 7.7% and the “Non-HDL-C, Mean of Percent Change from Baseline ± SE (%)” value (ANGPTL3 [4]; HoFH patients, Week 4) was −48.9 ± 7.4%. The “Apolipoprotein B, Mean of Percent Change from Baseline ± SE (%)” value (ANGPTL3 [4]; HoFH patients, Week 5) was −42.3 ± 4.7%.
